Patent publication US20150166628A1

Target: cellular IGF-1 receptors (UniProt P24062)
Assay: cell-based or functional assay

Sequence of UniProt P24062 (P24062 31-1370): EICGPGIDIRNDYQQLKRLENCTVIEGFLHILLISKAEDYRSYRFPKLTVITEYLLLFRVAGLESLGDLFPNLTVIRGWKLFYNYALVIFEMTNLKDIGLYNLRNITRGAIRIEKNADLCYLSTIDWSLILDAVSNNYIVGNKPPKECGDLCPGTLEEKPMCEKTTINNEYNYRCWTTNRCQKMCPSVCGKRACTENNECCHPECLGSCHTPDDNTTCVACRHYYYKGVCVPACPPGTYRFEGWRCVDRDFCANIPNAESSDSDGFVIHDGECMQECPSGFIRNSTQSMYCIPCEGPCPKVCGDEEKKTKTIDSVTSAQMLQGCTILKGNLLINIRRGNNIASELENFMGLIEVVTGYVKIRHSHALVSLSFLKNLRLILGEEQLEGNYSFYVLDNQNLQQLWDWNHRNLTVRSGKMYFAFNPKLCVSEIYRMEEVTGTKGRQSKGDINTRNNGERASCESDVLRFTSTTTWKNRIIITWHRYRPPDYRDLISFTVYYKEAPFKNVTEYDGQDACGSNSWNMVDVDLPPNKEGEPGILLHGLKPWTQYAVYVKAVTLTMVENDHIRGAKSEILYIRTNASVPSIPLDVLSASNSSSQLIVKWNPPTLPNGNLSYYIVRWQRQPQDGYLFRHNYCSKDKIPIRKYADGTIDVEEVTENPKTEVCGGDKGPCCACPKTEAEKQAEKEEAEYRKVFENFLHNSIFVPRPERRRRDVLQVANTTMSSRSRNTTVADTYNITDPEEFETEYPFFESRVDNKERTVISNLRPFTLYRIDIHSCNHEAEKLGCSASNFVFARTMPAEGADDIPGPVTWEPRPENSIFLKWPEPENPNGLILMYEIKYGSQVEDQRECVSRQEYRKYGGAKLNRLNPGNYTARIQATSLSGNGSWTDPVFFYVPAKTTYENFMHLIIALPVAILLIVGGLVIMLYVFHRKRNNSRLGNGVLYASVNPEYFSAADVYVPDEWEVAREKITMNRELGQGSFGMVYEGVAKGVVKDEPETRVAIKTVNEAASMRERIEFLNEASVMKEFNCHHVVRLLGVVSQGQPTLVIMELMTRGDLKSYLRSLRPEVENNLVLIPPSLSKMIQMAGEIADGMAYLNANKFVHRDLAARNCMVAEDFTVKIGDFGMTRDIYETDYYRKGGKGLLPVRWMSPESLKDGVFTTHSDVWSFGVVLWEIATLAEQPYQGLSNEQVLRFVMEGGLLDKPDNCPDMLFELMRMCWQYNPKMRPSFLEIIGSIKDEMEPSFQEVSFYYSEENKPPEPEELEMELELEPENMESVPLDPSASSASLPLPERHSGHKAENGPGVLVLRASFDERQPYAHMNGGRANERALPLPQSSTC

- sulfate incorporation into meniscal cartilage, normalized to saline injection, four days after injection (fold of saline): 1.82
- sulfate incorporation into meniscal cartilage, normalized to saline injection, two days after injection (fold of saline): 2.1
Substance: HB-IGF-1 fusion protein (heparin-binding domain of human HB-EGF with a single cysteine-to-serine mutation fused to the amino-terminus of a mature IGF-1 protein) (from UniProt P05019 49-118)
